This is an account of results in PMC3084784 (PLoS ONE, 2011).

The Kd is a measure of binding affinity in units of concentration.

In assay [1] the target is HLA-A*0201 (heavy chain, β2m and peptide …) (human |  | human SARS-CoV). Put plainly: SPR. The settings on record: both partners purified.
The target of assay [2] is T1, HLA-G1 (heavy chain, β2m and peptide …) (human | , UniProt P17693-1 25-300; P61769 21-119).
T1 construct: HLA-G1 heavy chain, recombinant; β2-microglobulin (β2m), from inclusion bodies; also called non-classical HLAI; copies: + +
Put plainly: SPR; BIAcore 3000; HLA-A*0201 (700 RU) or HLA-G1 (300 RU) immobilised by amine coupling on CM5 at pH 5.0, BSA as control surface; LILR injected; 25°C; 10 mM HEPES pH 7.4, 150 mM NaCl, 3 mM EDTA, 0.005% Tween-20; Kd by Scatchard analysis or nonlinear fit of a Langmuir isotherm. The settings on record: both partners purified.

B1: LILRA3 D1D2 (domain 1 and domain 2, residues 1-197) (domain or fragment)
chain: GPLPKPTLWAEPGSVITQGSPVTLRCQGSLETQEYHLYREKKTALWITRIPQELVKKGQFPILSITWEHAGRYCCIYGSHTVGLSESSDPLELVVTGAYSKPTLSALPSPVVTSGGNVTIQCDSQVAFDGFILCKEGEDEHPQCLNSHSHARGSSRAIFSVGPVSPSRRWSYRCYGYDSRAPYVWSLPSDLLGLLVP
B1: the Kd in assay [1] amounted to 28.5 µM.

B2: LILRB2 D1D2 (domain or fragment, human)
chain: GTIPKPTLWAEPDSVITQGSPVTLSCQGSLEAQEYRLYREKKSASWITRIRPELVKNGQFHIPSITWEHTGRYGCQYYSRARWSELSDPLVLVMTGAYPKPTLSAQPSPVVTSGGRVTLQCESQVAFGGFILCKEGEDEHPQCLNSQPHARGSSRAIFSVGPVSPNRRWSHRCYGYDLNSPYVWSSPSDLLELLVPG
notes: LILRB2 (ILT4), domains 1 and 2 (D1D2); also called LILRB2 D1D2 monomer; ILT4 D1D2
Consider B2, for which the figures for the equilibrium dissociation constant (Kd) in assay [1] and in assay [2] were 9.74 µM and 5.62 µM, respectively.

B3: LILRA3 D1 (domain 1, residues 1-97) (domain or fragment)
chain: GPLPKPTLWAEPGSVITQGSPVTLRCQGSLETQEYHLYREKKTALWITRIPQELVKKGQFPILSITWEHAGRYCCIYGSHTVGLSESSDPLELVVTG
In assay [1], B3 returned an equilibrium dissociation constant (Kd) of 40.1 µM.
